Data taken from US20120231006A1 (Amgen, published 2012).

Experiments:
human Orai1 [1] = molecular target: T1, human Orai1 (human, UniProt Q96D31 1-301); assay: cell-based or functional assay
human Orai1 [2] = molecular target: T1, human Orai1; assay: cell-based or functional assay; remark: listed apart in the source
[3] = molecular target: T2, mOrai1-hOrai1 ECL2 chimeric protein (human/mouse chimera, UniProt Q8BWG9 1-304 (mouse entry)); assay: FACS, 293EBNA, RFI-POC grade; parameters: concentration or dose not given beside the values
T2 construct: mouse Orai1 with human ECL2; also called Ch

[4] = molecular target: T3, hOrai1-mOrai1 ECL2 (…) protein (human/mouse chimera, UniProt Q96D31 1-301); assay: FACS, 293EBNA, RFI-POC grade; parameters: concentration or dose not given beside the values
T3 construct: also called Ch
T3 sequence (Q96D31 other isoform, or with tags, fused parts or gaps): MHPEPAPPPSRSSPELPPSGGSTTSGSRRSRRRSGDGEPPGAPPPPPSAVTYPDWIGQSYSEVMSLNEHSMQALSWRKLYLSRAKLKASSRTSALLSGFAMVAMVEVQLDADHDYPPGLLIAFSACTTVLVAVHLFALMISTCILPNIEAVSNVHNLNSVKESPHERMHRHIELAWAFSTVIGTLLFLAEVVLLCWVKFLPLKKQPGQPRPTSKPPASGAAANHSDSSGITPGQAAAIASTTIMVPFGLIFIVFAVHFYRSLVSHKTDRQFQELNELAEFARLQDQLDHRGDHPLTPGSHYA

[5] = molecular target: T4, hOrai1-mOrai1 ECL2 (…) protein (human/mouse chimera, UniProt Q96D31 1-301); assay: FACS, 293EBNA, RFI-POC grade; parameters: concentration or dose not given beside the values; remark: listed apart in the source
T4 construct: also called Ch
T4 sequence (Q96D31 other isoform, or with tags, fused parts or gaps): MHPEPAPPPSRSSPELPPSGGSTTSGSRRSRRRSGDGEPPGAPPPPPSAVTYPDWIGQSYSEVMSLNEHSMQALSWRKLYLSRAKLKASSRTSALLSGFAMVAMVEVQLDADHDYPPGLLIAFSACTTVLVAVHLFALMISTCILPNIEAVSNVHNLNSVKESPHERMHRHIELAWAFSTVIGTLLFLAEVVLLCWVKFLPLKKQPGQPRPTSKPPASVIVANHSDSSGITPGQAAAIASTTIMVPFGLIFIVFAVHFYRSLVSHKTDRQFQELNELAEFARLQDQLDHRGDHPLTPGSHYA

[6] = molecular target: T5, hOrai1-mOrai1 ECL2 (…) protein (human/mouse chimera, UniProt Q96D31 1-301); assay: FACS, 293EBNA, RFI-POC grade; parameters: concentration or dose not given beside the values; remark: listed apart in the source
T5 construct: also called Ch
T5 sequence (Q96D31 other isoform, or with tags, fused parts or gaps): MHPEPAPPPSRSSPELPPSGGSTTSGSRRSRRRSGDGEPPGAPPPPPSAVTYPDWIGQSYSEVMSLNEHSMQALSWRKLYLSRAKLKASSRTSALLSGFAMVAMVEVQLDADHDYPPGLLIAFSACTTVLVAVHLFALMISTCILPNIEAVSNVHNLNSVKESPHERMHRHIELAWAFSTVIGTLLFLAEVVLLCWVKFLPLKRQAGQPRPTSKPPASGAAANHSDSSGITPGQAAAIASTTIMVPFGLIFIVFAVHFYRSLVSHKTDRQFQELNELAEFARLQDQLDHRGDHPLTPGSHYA

[7] = molecular target: T6, hOrai1-mOrai1 ECL2 (RPTSKPPA) protein (human/mouse chimera, UniProt Q96D31 1-301); assay: FACS, 293EBNA, RFI-POC grade; parameters: concentration or dose not given beside the values
T6 construct: also called Ch

[8] = molecular target: T7, hOrai1-mOrai1 ECL2 (SKPPA) protein (human/mouse chimera, UniProt Q96D31 1-301); assay: FACS, 293EBNA, RFI-POC grade; parameters: concentration or dose not given beside the values
T7 construct: also called Ch

[9] = molecular target: T2, mOrai1-hOrai1 ECL2 chimeric protein; assay: FACS, 293EBNA, RFI-POC grade
From the text: (§1) FIG. 16A-D illustrates the results of FACS analysis showing binding to the indicated mOrai1-hOrai1 ECL2 chimeric mutants expressed on the surface of HEK-293-EBNA cells. Transfected cells were stained first with recombinant monoclonal antibodies then counter-stained with a secondary phycoerythrin-labeled goat (“Gt”) anti-human (“Hu”) IgG F(ab′)₂ antibody fragment and visualized using FACS. In FIG. 16B and FIG. 16D, The values of Relative Fluorescence Intensity as Percent of Control (RFI-POC) are calculated from the relative fluorescence intensity geometric mean (Geo Mean). The geometric mean is an average calculated by multiplying a series of numbers and taking the nth root where n is the number of numbers in the series. It is a statistical average of a set of transformed numbers often used to represent a central tendency in a highly variable data set that minimizes the effects of extreme values.
(§2) Table 11A and Table 11B feature a schematic representation of the POC data from FIG. 16B and FIG. 16D, respectively, where the binding results are recorded as (+++) denoting binding POC from 40% to 100%, (++) for POC of 5% to less than 40%, (+) for POC from 1% to less than 5% and (−) as lack of binding with POC less than 1%.

[10] = molecular target: T8, mOrai1-hOrai1 ECL2 (VIV) protein (human/mouse chimera, UniProt Q8BWG9 1-304 (mouse entry)); assay: FACS, 293EBNA, RFI-POC grade
T8 construct: also called Ch
From the text: as §1, §2

[11] = molecular target: T9, mOrai1-hOrai1 ECL2 (HSD) protein (human/mouse chimera, UniProt Q8BWG9 1-304 (mouse entry)); assay: FACS, 293EBNA, RFI-POC grade
T9 construct: also called Ch
From the text: as §1, §2

human Orai1 [12] = molecular target: T1, human Orai1; assay: KinExA, AM1-CHO/hOrai1/hSTIM1-YFP cells
Procedure: Each equilibrium sample set was read in triplicate on the KinExA machine. For low [Ab] equilibrium samples 4 mL was run of each sample in triplicate. For high [Ab] equilibrium samples 300 μL was run of each sample in triplicate. […] For each equilibrium sample the free [Ab] would be detected by first running the coated beads through the flow cell, then after quick wash with the running buffer (1×PBS pH7.4+1% BSA+0.05% Sodium Azide) the equilibrium samples were passed through the beads followed by a quick wash with the running buffer. Then the secondary detection Ab, Gt anti Hu (H+ L) Cy5, was run through the flow cell at 1 μg/mL and 1000 μL per run. The KinExA voltage output signal was then used in KinExA software to calculate the Kd values for each antibody. From the plots at two different initial total [Ab] concentrations the Kd was obtained from curve fitting using n-curve analysis in KinExA Pro software (Sapidyne Instruments Inc., Boise Id.).

human Orai1 [13] = molecular target: T1, human Orai1; assay: FACS Kd, AM1-CHO/hOrai1/hSTIM1-YFP cells
Procedure: The equilibrium plates were centrifuged at 500 g for 3 minutes and cell pellets were washed twice with 200 μL of ice cold FACS buffer (1×D-PBS+2% FBS). The cells were then incubated with a secondary antibody, goat anti-human Fc Cy5 at 5 μg/mL and 100 μL per well for 1 h on ice in the dark. Following the incubation, the cells were washed twice with 200 μL of ice-cold FACS buffer before flow cytometry analysis. The GeoMean values gated on live cell population measure the bound [Ab]. The inverse of the GeoMean values that reflects theoretical free [Ag] in the equilibrium solution was then calculated. The inverse values of the GeoMean read were used in KinExA® Pro software for analysis and Kd calculation for each antibody. The free [Ag] measure was plotted against the starting concentration of titrating component and from these plots at two different cell concentrations the Kd was obtained from curve fitting using n-curve analysis in KinExA Pro software. […] Shown in Table 14 (below) are the equilibrium dissociation constant (Kd) values of invented mAbs determined by FACS Kd measurement.

T8 sequence (Q8BWG9 other isoform, or with tags, fused parts or gaps): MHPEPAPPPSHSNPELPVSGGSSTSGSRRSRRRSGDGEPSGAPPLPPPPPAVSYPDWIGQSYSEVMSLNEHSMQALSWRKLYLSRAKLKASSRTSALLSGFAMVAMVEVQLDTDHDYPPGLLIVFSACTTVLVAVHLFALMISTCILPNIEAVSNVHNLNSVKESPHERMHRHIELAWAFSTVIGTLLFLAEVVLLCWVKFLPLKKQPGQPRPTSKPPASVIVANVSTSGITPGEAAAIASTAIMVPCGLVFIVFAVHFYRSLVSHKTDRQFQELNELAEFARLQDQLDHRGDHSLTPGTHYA
T2 sequence (Q8BWG9 other isoform, or with tags, fused parts or gaps mutant): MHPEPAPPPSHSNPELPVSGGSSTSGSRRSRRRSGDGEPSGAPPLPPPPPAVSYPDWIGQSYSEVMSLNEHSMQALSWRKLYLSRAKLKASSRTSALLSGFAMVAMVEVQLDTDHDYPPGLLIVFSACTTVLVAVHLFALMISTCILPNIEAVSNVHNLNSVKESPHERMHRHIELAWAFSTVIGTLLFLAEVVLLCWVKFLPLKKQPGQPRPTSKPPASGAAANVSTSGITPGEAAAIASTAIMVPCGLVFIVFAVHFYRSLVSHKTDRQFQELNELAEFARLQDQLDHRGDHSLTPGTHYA
T9 sequence (Q8BWG9 other isoform, or with tags, fused parts or gaps): as the sequence (Q8BWG9 other isoform, or with tags, fused parts or gaps mutant) above, with V226H, T228D counted along it
T1 sequence (Q96D31 whole entry): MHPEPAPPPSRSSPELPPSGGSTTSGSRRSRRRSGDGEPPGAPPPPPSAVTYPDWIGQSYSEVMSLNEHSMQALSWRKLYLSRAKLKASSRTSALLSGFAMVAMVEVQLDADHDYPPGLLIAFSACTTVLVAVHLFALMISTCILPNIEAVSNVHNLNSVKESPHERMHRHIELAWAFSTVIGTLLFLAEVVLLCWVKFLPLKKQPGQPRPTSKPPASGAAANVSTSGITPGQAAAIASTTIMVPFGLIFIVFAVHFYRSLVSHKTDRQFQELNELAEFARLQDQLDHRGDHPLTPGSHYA
T7 sequence (Q96D31 other isoform, or with tags, fused parts or gaps): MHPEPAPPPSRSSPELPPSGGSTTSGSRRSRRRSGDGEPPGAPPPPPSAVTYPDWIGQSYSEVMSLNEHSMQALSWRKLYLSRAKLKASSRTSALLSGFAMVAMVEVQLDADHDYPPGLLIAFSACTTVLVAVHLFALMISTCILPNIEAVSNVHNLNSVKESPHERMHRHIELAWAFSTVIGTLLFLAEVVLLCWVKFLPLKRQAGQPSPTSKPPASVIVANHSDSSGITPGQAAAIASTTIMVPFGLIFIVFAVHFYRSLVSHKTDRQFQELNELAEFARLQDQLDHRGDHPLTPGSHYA
T6 sequence (Q96D31 other isoform, or with tags, fused parts or gaps): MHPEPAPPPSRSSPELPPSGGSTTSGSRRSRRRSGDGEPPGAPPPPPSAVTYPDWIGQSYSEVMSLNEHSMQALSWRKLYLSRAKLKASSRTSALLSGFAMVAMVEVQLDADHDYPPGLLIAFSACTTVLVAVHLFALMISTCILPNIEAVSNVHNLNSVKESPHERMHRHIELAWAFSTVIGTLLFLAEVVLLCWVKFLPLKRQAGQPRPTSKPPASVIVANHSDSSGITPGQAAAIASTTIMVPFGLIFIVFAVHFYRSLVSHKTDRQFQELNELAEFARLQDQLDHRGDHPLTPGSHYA

Binder | IC50 IFN-γ, whole blood Donor A (human Orai1 [1]) [nM] | IC50 IFN-γ, whole blood Donor B (human Orai1 [1]) [nM] | IC50 IL-2, whole blood Donor A (human Orai1 [1]) [nM] | IC50 IL-2, whole blood Donor B (human Orai1 [1]) [nM] | IC50 IFN-g, whole blood Donor A, recombinant mAb (human Orai1 [2]) [nM] | IC50 IFN-g, whole blood Donor B, recombinant mAb (human Orai1 [2]) [nM] | IC50 IL-2, whole blood Donor A, recombinant mAb (human Orai1 [2]) [nM] | IC50 IL-2, whole blood Donor B, recombinant mAb (human Orai1 [2]) [nM] | percent of control (POC) of FACS Geo Mean [3] [%] | percent of control (POC) of FACS Geo Mean [4] [%] | percent of control (POC) of FACS Geo Mean [5] [%] | percent of control (POC) of FACS Geo Mean [6] [%] | percent of control (POC) of FACS Geo Mean [7] [%] | percent of control (POC) of FACS Geo Mean [8] [%] | POC (percent of control, FACS Geo Mean relative to Ch. 1) [9] [%] | POC (percent of control, FACS Geo Mean relative to Ch. 1) [10] [%] | POC (percent of control, FACS Geo Mean relative to Ch. 1) [11] [%] | Kd (human Orai1 [12]) [nM] | Kd (human Orai1 [13]) [nM]
mAb 2D2.1 (antibody, human IgG2, lambda, V domains shown, fully human IgG2 lambda, Campaign 1; also called mAb 2D.1) VH: QVQLQQWGAGLLKPSETLSLTCAVYGGSFSGYYWSWIRQPPGKGLEWIGEIDHSGRINYNPALKSRLTISVDTSKNQFSLKLSSVTAADTAVYYCARAGSGGYEDWFDPWGQGTLVTVSS VL: QSVLTQPPSVSGAPGQRVTISCTGSSSNIGAGYNVHWYQQFPRTDPKLLIYVYNIRPSGVPDRFSGSRSGTSASLAITGLQTEDEADYYCQSYDSSLSGVVFGGGTKLTVLG | 1.98 | 2.06 | 1.31 | 1.16 | 1.18 | 1.1 | 0.49 | 0.21 | 40 to 100 | 40 to 100 | 40 to 100 | 40 to 100 | 40 to 100 | 5 to 40 | 40 to 100 | 40 to 100 | 40 to 100 | 0.099 | 0.0098
mAb 2C1.1 (antibody, human IgG2, lambda, V domains shown, fully human IgG2 lambda, Campaign 1; tested hybridoma-purified and recombinant; also called anti-hOrai1 mAb 2C1.1) VH: QVQLQQWGAGLLKPSETLSLTCAVYGGSFSGYYWSWIRQPPGKGLEWIGEIDHSGSTNYNPALKSRLTISVDTSKNQFSLKLSSVTAADTAVYYCARAGSGGYEDWFDPWGQGTLVTVSS VL: QSVLTQPPSVSGAPGQRVTISCTGSSSNIGAGYNVHWYQQFPRTDPKLLIYVYNIRPSGVPDRFSGSRSGTSASLAITGLQTEDEADYYCQSYDSSLSGVVFGGGTKLTVLG | 17.1 | 2.67 | 5.23 | 1.44 | 1.62 | 1.61 | 0.57 | 0.34 | – | – | – | – | – | – | 40 to 100 | 40 to 100 | 40 to 100 | 0.04 | 0.52
mAb 2B7.1 (antibody, human IgG2, V domains shown, fully human, Campaign 1) VH: QVQLQQWGAGLLKPSETLSLTCAVYGGSFSGYYWSWIRQPPGKGLEWIGEIDHSGSTNYNPALKSRLTISVDTSKNQFSLKLSSVTAADTAVYYCARAGSGGYEDWFDPWGQGTLVTVSS VL: QSVLTQPPSVSGAPGQRVTISCTGSSSNIGTGYNVHWYQQFPRTDPKLLIYVYNIRPSGVPDRFSGSRSGTSASLAITGLQTEDEADYYCQSYDSSLSGVVFGGGTKLTVLG | 4.6 | 14 | 3.5 | 4.67 | 5.27 | 3.93 | 2.06 | 0.9 | – | – | – | – | – | – | 40 to 100 | 40 to 100 | 40 to 100 | 0.1 | 0.133
